The source of these data is patent US20170008962A1 (Dana-Farber, published 2017).

For assay [1], the target named is T1, recombinant human angiopoietin-1 (human, UniProt Q15389 20-498).
T1 construct: also called Ang-1
T1 sequence (looked up): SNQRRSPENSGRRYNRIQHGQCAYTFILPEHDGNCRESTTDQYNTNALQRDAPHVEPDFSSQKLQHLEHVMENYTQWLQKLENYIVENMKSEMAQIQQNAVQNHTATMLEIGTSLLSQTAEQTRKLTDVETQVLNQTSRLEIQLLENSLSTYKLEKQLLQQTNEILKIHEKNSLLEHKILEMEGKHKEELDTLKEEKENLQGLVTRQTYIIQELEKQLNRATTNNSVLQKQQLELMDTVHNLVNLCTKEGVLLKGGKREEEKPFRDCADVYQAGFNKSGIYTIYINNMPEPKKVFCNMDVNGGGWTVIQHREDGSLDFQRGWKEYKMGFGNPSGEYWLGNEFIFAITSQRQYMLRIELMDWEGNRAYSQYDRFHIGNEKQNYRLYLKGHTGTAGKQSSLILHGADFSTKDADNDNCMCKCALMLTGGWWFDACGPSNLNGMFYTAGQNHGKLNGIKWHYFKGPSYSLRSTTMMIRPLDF
Put plainly: ELISA, angiopoietin coated at 4 µg/mL, antibody 20 µg/mL-0.16 µg/mL, anti-human IgG-Europium. In general terms: In an ELISA, binding on a coated surface is turned into a signal by an enzyme label.

For assay [2], the target named is T2, recombinant human angiopoietin-4 (human, UniProt Q9Y264 25-503).
T2 construct: also called Ang-4; Ang4
T2 sequence (looked up): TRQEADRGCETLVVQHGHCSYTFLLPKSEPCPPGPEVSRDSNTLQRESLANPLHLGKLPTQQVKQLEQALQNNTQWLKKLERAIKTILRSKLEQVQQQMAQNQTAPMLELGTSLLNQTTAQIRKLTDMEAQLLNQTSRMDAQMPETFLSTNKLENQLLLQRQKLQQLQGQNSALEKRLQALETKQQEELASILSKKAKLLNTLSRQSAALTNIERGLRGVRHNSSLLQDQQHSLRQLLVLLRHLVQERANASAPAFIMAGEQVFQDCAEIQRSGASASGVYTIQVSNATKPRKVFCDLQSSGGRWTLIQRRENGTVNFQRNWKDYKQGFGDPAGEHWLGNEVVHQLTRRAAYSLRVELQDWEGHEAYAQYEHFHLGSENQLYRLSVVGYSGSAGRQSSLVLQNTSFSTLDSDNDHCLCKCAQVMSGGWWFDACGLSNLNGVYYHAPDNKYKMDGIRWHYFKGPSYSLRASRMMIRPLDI
The assay is described as above.

In assay [3] the target is T3, recombinant human angiopoietin-2 (human, UniProt O15123 19-496).
T3 construct: also called Ang-2
T3 sequence (looked up): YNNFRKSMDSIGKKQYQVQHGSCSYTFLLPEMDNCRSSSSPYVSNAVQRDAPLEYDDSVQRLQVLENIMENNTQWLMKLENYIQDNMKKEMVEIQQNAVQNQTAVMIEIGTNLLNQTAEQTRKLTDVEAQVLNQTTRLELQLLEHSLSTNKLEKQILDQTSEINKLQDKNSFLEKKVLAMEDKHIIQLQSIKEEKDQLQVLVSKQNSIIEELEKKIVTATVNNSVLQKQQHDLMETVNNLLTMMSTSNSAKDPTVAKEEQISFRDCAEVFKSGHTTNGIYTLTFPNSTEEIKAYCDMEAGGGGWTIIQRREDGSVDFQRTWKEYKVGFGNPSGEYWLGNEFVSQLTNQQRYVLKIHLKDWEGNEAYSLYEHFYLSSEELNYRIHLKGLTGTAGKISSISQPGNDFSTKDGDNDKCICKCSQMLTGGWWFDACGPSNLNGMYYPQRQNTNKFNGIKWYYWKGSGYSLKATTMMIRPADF
Described as above.

In assay [4] the target is T4, Ang-like-3 (human, UniProt Q9Y5C1 17-460).
T4 sequence (looked up): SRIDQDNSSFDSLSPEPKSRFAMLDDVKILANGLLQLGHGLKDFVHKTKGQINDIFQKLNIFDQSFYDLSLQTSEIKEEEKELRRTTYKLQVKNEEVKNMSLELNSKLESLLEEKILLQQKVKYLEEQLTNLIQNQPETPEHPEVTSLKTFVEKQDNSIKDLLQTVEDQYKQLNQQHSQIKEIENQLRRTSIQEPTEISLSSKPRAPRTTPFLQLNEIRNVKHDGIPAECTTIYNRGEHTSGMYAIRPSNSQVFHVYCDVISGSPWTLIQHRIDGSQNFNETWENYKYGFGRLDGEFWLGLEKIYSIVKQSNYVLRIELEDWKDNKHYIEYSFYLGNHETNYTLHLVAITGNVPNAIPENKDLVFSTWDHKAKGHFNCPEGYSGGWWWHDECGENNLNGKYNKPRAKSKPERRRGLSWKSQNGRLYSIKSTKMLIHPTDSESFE
In words: ELISA, protein coated on plate, anti-human IgG-Europium.

Assay [5] concerns the target T5, soluble, recombinant MICB with a single BirA biotinylation site (human, UniProt Q29980 23-309).
T5 sequence (looked up): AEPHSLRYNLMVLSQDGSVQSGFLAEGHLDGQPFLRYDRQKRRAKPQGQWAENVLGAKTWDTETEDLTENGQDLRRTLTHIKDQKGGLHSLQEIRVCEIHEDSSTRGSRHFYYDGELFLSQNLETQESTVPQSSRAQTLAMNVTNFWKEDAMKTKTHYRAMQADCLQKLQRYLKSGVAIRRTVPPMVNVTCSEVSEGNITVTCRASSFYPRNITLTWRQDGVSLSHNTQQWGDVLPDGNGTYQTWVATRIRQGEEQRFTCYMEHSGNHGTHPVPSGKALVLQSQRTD
In words: cytometric bead assay, biotinylated protein on streptavidin beads, FITC anti-human IgG.

The target in assay [6] is T1, recombinant human angiopoietin-1. Put plainly: ELISA, protein coated at 4 µg/ml, antibody at 20, 4, 0.8 and 0.16 µg/ml, europium conjugated anti-human IgG.
The target of assay [7] is T2, recombinant human angiopoietin-4. Described as above.
The target of assay [8] is T3, recombinant human angiopoietin-2. Described as above.

B1: antibody ID 2 (anti-angiopoietin-2 antibody) (antibody, V domains shown)
VH: EVQLVESGGGLVQPGGSLRLSCAASGFTFSSYAMSWVRQAPGKGLEWVSGIYWSGGSTYYADSVKGRFTISRDISKNTLYLQMNSLRADDTAVYYCARGDYYGSGAHFDYWGQGTLVTVSS
VL: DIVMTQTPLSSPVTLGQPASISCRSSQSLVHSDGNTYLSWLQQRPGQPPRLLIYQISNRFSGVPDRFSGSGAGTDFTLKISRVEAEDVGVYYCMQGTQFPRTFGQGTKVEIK
Turning to B1, the binding result in assay [1] was “binds”; in assay [2], “binds”; in assay [3], “binds”; in assay [4], “no binding (tested: 20 µg/mL-0.16 µg/mL)”.

B2: CM24002 Ab2 (anti-MICA antibody ID-6 of Table 1) (antibody, V domains shown)
VH: QVQLQESGPGLVEPSGTLSLTCTVSGGSISRSNWWSWVRQPPGEGLEWIGEIHHIGRSSYNPSLKSRVTMSVDKSQNQFSLRLTSVTAADTAVYYCAKNGYYAMDVWGQGTTVTVSS
VL: EIVLTQSPGTLSLSPGERATLSCRASQSVSSDFLAWYQQKPGQAPRLLIYATSFRATGISDRFSGSGSGTDFSLTINRLEPEDFAVYYCQHYRSSPPWYTFAQGTKLDMRRTVAAPSV
For B2, the binding result in assay [5] is listed as “binds”.

B3: CM33322 Ab11 (anti-MICA antibody ID-8 of Table 1) (antibody, V domains shown)
VH: QVQLQESGPGLVKPSENLSLTCTVSDASMSDYHWSWIRQAAGKGLEWIGRMYSTGSPYYKPSLKGRVTMSIDTSKNQFSLKLASVTAADTAIYYCASGQHIGGWVPPDFWGQGTLVTVSS
VL: DIVMTQTPLSSPVTLGQPASISCRSSEGLVYSDGDTYLSWFHQRPGQPPRLLIYKISNRFSGVPDRFSGSGAGTDFTLKISRVEAEDVGVYYCMQATHFPWTFGQGTKVEVKR
On to B3, for which the binding result in assay [5] was “binds”.

B4: anti-Ang2 Ab6 (antibody ID-10 of Table 1, anti-angiopoietin-2 antibody) (antibody, V domains shown)
VH: EVQLVESGGGLIQPGGSLRLSCAASGFLISSYFMSWVRQAPGKGPEWVSVIYSDGSTYYVDSVKGRFTISTDNSKNTLYLQMNSLRAEDTARYYCATRHLNYDGDHWGQGTLVTVSS
VL: DVVMTQSPLSLPVTLGQPASISCRSSQSLVHSDGNTYLNWFHQRPGQSPRRLIYKVSKRDSGVPDRFSGSGSGSDFTLKISRVEAEDVGIYYCMQGTHWPTFGQGTKVEIKR
notes: also called anti-Ang6 Ab2
With B4, the binding result in assay [6], in assay [7] and in assay [8] was “binds” in each case.

B5: antibody ID 4 (anti-angiopoietin-2 antibody) (antibody, V domains shown)
VH: EVQLVESGGGLVQPGGSVRLSCAASGFILSNFAMSWVRQAPGKGLDWVSGNFGGRENTYYADSVKGRFTISRDSSKSTLYLQMNNLRAEDTAVYYCARGDYHGSGAHFDYWGQGILVTVSS
VL: DIVMTQSPLSSPVILGQPASISCRSSQSLLHSDGNTYLSWLHQRPGQPPRLLIYQISNRFSGVPDRFSGSGTGTDFTLKISRVEAEDAGIYYCMQGTEFPRTFGQGTKVEIK
Turning to B5, the binding result is given as “binds” in assay [1], “binds” in assay [2], “binds” in assay [3] and “no binding (tested: 20 µg/mL-0.16 µg/mL)” in assay [4].

B6: CM24002 Ab4 (anti-MICA antibody ID-7 of Table 1) (antibody, V domains shown)
VH: QVQLQESGPGLVKPSGTLSLTCAVSGASITNGAWWSWVRQPPGKGLEWIGEIYLNGNTNSNPSLKSRVIISVDKSKNHFSLTLNSVTAADTAVYYCAKNAAYNLEFWGQGALVTVSS
VL: EIVLTQSPGTLSLSPGERATLSCRASQTVSSPYVAWYQQKRGQAPRLLIYGASTRATGIPDRFSGSGSGTDFTLTISRLEPEDFAVYYCQQYDRSYYYTFGQGTKLEIK
B6: the binding result in assay [5] is on record as “binds”.

B7: antibody ID 5 (anti-angiopoietin-2 antibody) (antibody, V domains shown)
VH: EVQLVESGGGLIQPGGSLRLSCATSGFTFRTSSMSWVRRAPGKGLEWVSAIGAESHDTHYTDSAEGRFTISKDYSKNTVYLQMNGLRVDDTAIYYCAHHYYYGSRQKPKDWGDAFDMWGQGTMVSVSS
VL: DIQMTQSPSSVSASVGDRVTITCRASQDISTWLTWYQQRAGKAPNLLIYGASTLEDGVPSRFSGSGSGTDFTLTIDSLQPDDFATYYCQQSHSFPYTFGQGTQLGIS
Turning to B7, the binding result in assay [1] is on record as “binds”; in assay [2], “binds”; in assay [3], “binds”; in assay [4] it was “no binding (tested: 20 µg/mL-0.16 µg/mL)”.

B8: antibody ID 3 (anti-angiopoietin-2 antibody) (antibody, V domains shown)
VH: EVQLVESGGGLVQPGGSLRLSCAASGFTFSNNWMHWVRQAPGKGLEWISEIRSDGNFTRYADSMKGRFTISRDNAKSTLYLQMNSLRVEDTGLYYCARDYPYSIDYWGQGTLVTVSS
VL: DIVMTQTPLSSPVTLGQPASISCTSSQSLVHSNGNTYLSWLQQRPGQPPRLLIYEISKRVSGVPDRFSGSGAGTDFTLKISRVEAEDVGVYYCMQGKQLRTFGQGTKLEIK
For the molecule B8, the binding result is on record as “binds” in assay [1], “binds” in assay [2], “binds” in assay [3] and “no binding (tested: 20 µg/mL-0.16 µg/mL)” in assay [4].
